Source: article PMC5906670, “Structural basis of epilepsy-related ligand–receptor complex LGI1–ADAM22” (Nature Communications, 2018)

B1: ADAM22 ECD-FLAG [human] / LGI1-His6 [human] (parent)
chain 1: SKRQLRRYPRNVEEETKYIELMIVNDHLMFKKHRLSVVHTNTYAKSVVNMADLIYKDQLKTRIVLVAMETWATDNKFAISENPLITLREFMKYRRDFIKEKSDAVHLFSGSQFESSRSGAAYIGGICSLLKGGGVNEFGKTDLMAVTLAQSLAHNIGIISDKRKLASGECKCEDTWSGCIMGDTGYYLPKKFTQCNIEEYHDFLNSGGGACLFNKPSKLLDPPECGNGFIETGEECDCGTPAECVLEGAECCKKCTLTQDSQCSDGLCCKKCKFQPMGTVCREAVNDCDIRETCSGNSSQCAPNIHKMDGYSCDGVQGICFGGRCKTRDRQCKYIWGQKVTASDKYCYEKLNIEGTEKGNCGKDKDTWIQCNKRDVLCGYLLCTNIGNIPRLGELDGEITSTLVVQQGRTLNCSGGHVKLEEDVDLGYVEDGTPCGPQMMCLEHRCLPVASFNFSTCLSSKEGTICSGNGVCSNELKCVCNRHWIGSDCNTYFPHNDDAKTGITLSG
chain 2: KKPAKPKCPAVCTCTKDNALCENARSIPRTVPPDVISLSFVRSGFTEISEGSFLFTPSLQLLLFTSNSFDVISDDAFIGLPHLEYLFIENNNIKSISRHTFRGLKSLIHLSLANNNLQTLPKDIFKGLDSLTNVDLRGNSFNCDCKLKWLVEWLGHTNATVEDIYCEGPPEYKKRKINSLSSKDFDCIITEFAKSQDLPYQSLSIDTFSYLNDEYVVIAQPFTGKCIFLEWDHVEKTFRNYDNITGTSTVVCKPIVIETQLYVIVAQLFGGSHIYKRDSFANKFIKIQDIEILKIRKPNDIETFKIENNWYFVVADSSKAGFTTIYKWNGNGFYSHQSLHAWYRDTDVEYLEIVRTPQTLRTPHLILSSSSQRPVIYQWNKATQLFTNQTDIPNMEDVYAVKHFSVKGDVYICLTRFIGDSKVMKWGGSSFQDIQRMPSRGSMVFQPLQINNYQYAILGSDYSFTQVYNWDAEKAKFVKFQELNVQAPRSFTHVSINKRNFLFASSFKGNTQIYKHVIVDLSA

Variants of: B1
Experiment: pull-down
Conditions: with LGI1-His6 [human]; Ni-NTA agarose; proteins secreted from HEK293T cells; n = 5 independent experiments; read off a plot

Row | percent of parent | Variant
1 | 4 % of WT | chain 1 Y186A
2 | 37 % of WT | chain 1 D183A
